Where a chain is given by its changes, count along the chain named.
T1: soluble extracellular domain of human IL-5 receptor alpha subunit (sIL-5Rα) (human, UniProt Q01344 21-333)
T1 chain: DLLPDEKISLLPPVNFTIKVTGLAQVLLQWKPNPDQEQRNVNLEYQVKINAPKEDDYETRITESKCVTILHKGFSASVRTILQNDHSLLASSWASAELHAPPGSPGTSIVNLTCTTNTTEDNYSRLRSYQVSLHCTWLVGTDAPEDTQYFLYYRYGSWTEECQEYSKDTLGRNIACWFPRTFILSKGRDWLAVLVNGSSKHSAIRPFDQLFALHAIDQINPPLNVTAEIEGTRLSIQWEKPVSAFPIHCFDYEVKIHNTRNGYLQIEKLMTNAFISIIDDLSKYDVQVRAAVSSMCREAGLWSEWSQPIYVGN

B1: benralizumab analogue (antibody, V domains shown)
VH: EVQLVQSGAEVKKPGASVKVSCKASGYTFTSYVIHWVRQRPGQGLAWMGYINPYNDGTKYNERFKGKVTITSDRSTSTVYMELSSLRSEDTAVYLCGREGIRYYGLLGDYWGQGTLVTVSS
VL: DIQMTQSPSSLSASVGDRVTITCGTSEDIINYLNWYQQKPGKAPKLLIYHTSRLQSGVPSRFSGSGSGTDFTLTISSLQPEDFATYYCQQGYTLPYTFGQGTKVEIK
notes: VH of benralizumab, made by DNA synthesis; VL of benralizumab, made by DNA synthesis; Human IgG1, kappa; VH and VL identical to commercial benralizumab but with core fucose on the Fc N-glycan; also called benralizumab analogue (fucosylated human IgG1); source: HEK293F, transiently transfected, purified (Protein A)
B2: 5R65.7 (antibody, V domains shown)
VH: QVQLVQSGAEVKKPGSSVKVSCKASGYTFTSYWINWVRQAPGQGLEWIGHIYPNKNENYYNHKFKDKATLTVDKSTNTAYMELSSLRSEDTAVYYCTREFYGRQYYQAMDYWGQGTTLTVSS
VL: DIQMTQSPSTLSASVGDRVTITCKASQNVGTAVAWYQQKPGKAPKLLIYWASTRHTGVPDRFSGSGSGTDFTLTISSLQPDDFATYYCQQFGRYPYTFGSGTKVEVK
notes: as the VH of m6 (5R65) with mutations in VH-CDR3 (Kabat residues 95–100d were randomised); no mutations in VL-CDR3; Human IgG1, kappa; selected as scFab by yeast display from the 5R65 CDR3 library under kinetic screening; also called 5R65.7 Ab; source: HEK293F, purified (Protein A)
B3: 5R65 (antibody, V domains shown)
VH: B2 VH with E99D, F100Y, Q104S, Q107Y
VL: B2 VL
notes: Human IgG1, kappa; selected as scFab by yeast display from the hu2B7 VH-CDR2 library; also called 5R65 Ab; source: HEK293F, purified (Protein A)
B4: 5R68 (antibody, V domains shown)
VH: QVQLVQSGAEVKKPGSSVKVSCKASGYTFTSYWINWVRQAPGQGLEWIGHIYPTATIAVYNDKFKDKATLTVDKSTNTAYMELSSLRSEDTAVYYCTRDYYGRSYYYAMDYWGQGTTLTVSS
VL: B2 VL
notes: Human IgG1, kappa; selected as scFab by yeast display from the hu2B7 VH-CDR2 library; source: HEK293F, purified (Protein A)
B5: 5R86 (antibody, V domains shown)
VH: B4 VH with A55S, T56S, I57V, A58K, V59F, D62N
VL: B2 VL
notes: as for B4
B6: 5R80 (antibody, V domains shown)
VH: B4 VH with T54Q, A55K, I57L, A58T, V59I, D62H
VL: B2 VL
notes: as for B4
B7: hu2B7 humanized anti–IL-5Rα antibody (antibody, V domains shown)
VH: B4 VH with T54S, A55E, T56S, I57Y, A58T, V59N, D62Q
VL: B2 VL
notes: VH of hu2B7: CDRs of m2B7 grafted on the FRs of daclizumab, mouse ThrH93 (Kabat) kept; VL of hu2B7: CDRs of m2B7 grafted on the FRs of daclizumab, mouse AspL60 and AspL70 kept; Full-length human IgG1, kappa; source: HEK293F, transiently cotransfected, purified (Protein A)
B8: 5R65.45 (antibody, V domains shown)
VH: B2 VH with F100Y, Q104S, Q107N
VL: B2 VL
notes: as the VH of m6 (5R65) with mutations in VH-CDR3 (Kabat residues 95–100d were randomised); no mutations in VL-CDR3; Human IgG1, kappa; selected as scFab by yeast display from the 5R65 CDR3 library under kinetic screening; source: HEK293F, purified (Protein A)
B9: 5R65.39 (antibody, V domains shown)
VH: B2 VH with Q104S, Y105R, Q107S
VL: B2 VL
notes: as for B8
B10: 5R65.18 (antibody, V domains shown)
VH: B2 VH with F100Y, Q104T, Q107S
VL: B2 VL
notes: as for B8
B11: 5R65.14 (antibody, V domains shown)
VH: B2 VH with F100H, Q104P, Q107N
VL: B2 VL
notes: as for B8
B12: 5R65.10 (antibody, V domains shown)
VH: B2 VH with F100Y, Q104S, Q107A
VL: B2 VL
notes: as for B8
B13: m2B7 murine anti–IL-5Rα antibody (antibody, V domains shown)
VH: QVQLQQPGAELVRPGASVKLSCKASGYTFTSYWINWVKQRPGQGLEWIGHIYPSESYTNYNQKFKDKATLTVDKSSSTAYMQLSSPTSEDSAVYYCTRDYYGRSYYYAMDYWGQGTSVTVSS
VL: DIVMTQSHKFMSTSVGDRVSITCKASQNVGTAVAWYQQKPGQSPKLLIYWASTRHTGVPDRFTGSGSGTDFTFTISNVQSEDLADYFCQQFGRYPYTFGGGTKLEIK
notes: VH of murine m2B7; FRs of mouse germline IGHV1-61*01; VL of murine m2B7; FRs of mouse germline IGKV6-23*01; source: hybridoma supernatant, expanded and purified

These binders were tested against T2, soluble extracellular domain of human IL-5 receptor alpha subunit (sIL-5Rα) (human, UniProt Q01344) (assay: cell-based or functional assay). Details: not given.

IC50 of inhibition of rhIL-5 (80 pM)-stimulated proliferation of TF-1/IL-5Rα cells, Abs 0 to 32 nM, 40 h (blocks IL-5 with IL-5Rα) | NK cell–mediated ADCC against peripheral eosinophils from healthy controls (autologous NK cells 1:5, Ab 1 μM, rhIL-5 100 pM, 20 h), fold against the benralizumab analogue | Binder
~1.99 nM |  | B1
~0.57 nM | ~3 fold | B2
~11.8 nM | ~1.5 fold | B3

Biological target: T1, soluble extracellular domain of human …
Test: ELISA; competition with plate-immobilized IL-5-mFc
Details: not given

IC50 | Binder
28.8 nM | B4
14.1 nM | B5
24.2 nM | B6
57.4 nM | B7

Each binder was assayed against T3, insulin (Homo sapiens (assumed), UniProt P01308) (assay: ELISA; plates coated at 25°C for 1 h with sIL-5Rα (50 ng/well) or off-target antigens (insulin 125 ng/well, hemocyanin 125 ng/well); Abs 8–200 nM in PBST pH 7.4 with 2% skim milk, 25°C, 1 h; detected with HRP anti-human Fc or anti-mouse Fc). Details: both partners purified.
T3 construct: insulin B chain; insulin A chain; Off-target antigen of the nonspecificity ELISA (125 ng/well)
T3 sequence (P01308 whole entry, looked up): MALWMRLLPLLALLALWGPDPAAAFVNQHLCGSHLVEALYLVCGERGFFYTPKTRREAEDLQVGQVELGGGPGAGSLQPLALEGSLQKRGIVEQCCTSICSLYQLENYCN

binding result | Binder
no binding (tested: 100 nM) | B4
no binding (tested: 100 nM) | B5
no binding (tested: 100 nM) | B6
no binding (tested: 100 nM) | B3

What follows are binders tested against T2, soluble extracellular domain of human … (assay: BLI; Octet QKe, 30°C, 1× kinetics buffer in PBS pH 7.4; Ab immobilised on anti-human IgG Fc capture (AHC) biosensors, sIL-5Rα as analyte; association 300 s, dissociation 600 s; 1:1 binding model). Details: both partners purified.

Kd | koff | kon | Binder
26.8 ± 0.52 nM | 0.0011 s⁻¹ | 41100 M⁻¹ s⁻¹ | B1
24.1 ± 0.47 nM | 0.000566 s⁻¹ | 23500 M⁻¹ s⁻¹ | B4
4.64 ± 0.23 nM | 0.000147 s⁻¹ | 31700 M⁻¹ s⁻¹ | B2
11.8 ± 0.51 nM | 0.0003 s⁻¹ | 25400 M⁻¹ s⁻¹ | B5
7.26 ± 0.36 nM | 0.000181 s⁻¹ | 24900 M⁻¹ s⁻¹ | B8
16.2 ± 0.59 nM | 0.000365 s⁻¹ | 22500 M⁻¹ s⁻¹ | B6
6.13 ± 0.32 nM | 0.000171 s⁻¹ | 28000 M⁻¹ s⁻¹ | B9
5.95 ± 0.27 nM | 0.000133 s⁻¹ | 22400 M⁻¹ s⁻¹ | B10
47.8 ± 1.06 nM | 0.00106 s⁻¹ | 22200 M⁻¹ s⁻¹ | B7
14.5 ± 0.29 nM | 0.000329 s⁻¹ | 22700 M⁻¹ s⁻¹ | B3
8.64 ± 0.35 nM | 0.000199 s⁻¹ | 23000 M⁻¹ s⁻¹ | B11
8.25 ± 0.4 nM | 0.000201 s⁻¹ | 24400 M⁻¹ s⁻¹ | B12
40.2 ± 0.84 nM | 0.000834 s⁻¹ | 20700 M⁻¹ s⁻¹ | B13

What follows are binders tested against T2, soluble extracellular domain of human … (assay: ELISA; competitive: plates coated with IL-5-mFc (100 ng/well); sIL-5Rα (50 nM) added with anti–IL-5Rα Abs (0–1 µM), 25°C, 1 h; bound sIL-5Rα detected with HRP anti-His). Details: both partners purified.

IC50 | Binder
~9.8 nM | B1
~9.5 nM | B3

— paper PMC7820887 (Frontiers in Immunology, 2020)
